This note sets out measurements from patent US6946255 (KO OKUMURA, dated 2005).

B1: monoclonal antibody NOK3 (produced by Hybridoma NOK3, FERM BP-5046) (antibody, V domains shown)
VH: VKLQESGPELVKPGASVKISCKASGYAFSSSWMNWVKQRPGKGLEWIGRIYPVNGDTNYNGKFKGKATLTADKSSSTAYMQLSSLTSEDSAVYFCATDGYWYFDVWGQGTTVTVSS
VL: NIVMTQSPKSMSMSVGERVTLSCKASENVDIYVSWYQQKPEQSPKLLIYGTSNRYTGVPDRFTGSGSATDFTLTISNVQAEDLSDYYCVQSYSYPWTFGGGTKLEIKR
notes: also called NOK3 antibody
B2: monoclonal antibody NOK4 (produced by Hybridoma NOK4, FERM BP-5047) (antibody, V domains shown)
VH: VQLQESGPGLVKPSQSLSLTCSVTGYSITSGYYWNWIRQFPGNKLEWMGYISYDGSNNYNPSLKNRISITRDTSKNQFFLKLNSVTTEDTATYYCAVYYYDGSSFDYWGQGTTVTVSS
VL: DIVLTQSPASLAVSLRQRATISCRASEGVDSYGISFMHWYQQKPGQPPKLLIYRASYLKSGVPARFSGSGSRTDFTLTIDPVEADDAATYYCQQNNEDPWTFGGGTKLEIKR
B3: monoclonal antibody NOK2 (produced by Hybridoma NOK2, FERM BP-5045) (antibody, V domains shown)
VH: VQLQQSGAELVRPGTSVKMSCKAAGYTFTNYWIGWVKQRPGHGLEWIGYLYPGGLYTNYNEKFKGKATLTADTSSSTAYMQLSSLTSEDSAIYYCARYRDYDYAMDYWGQGTTVTVSS
VL: DVLMTQTPLSLPVNIGDQASISCKSTKSLLNSDGFTYLGWCLQKPGQSPQLLIYLVSNRFSGVPDRFSGSGSGTDFTLKISRVEAEDLGVYYCFQSNYLPLTFGSGTKLEIKR
notes: also called NOK2 antibody
B4: monoclonal antibody NOK1 (produced by Hybridoma NOK1, FERM BP-5044) (antibody, V domains shown)
VH: VQLQESGPELVKPGASVKISCKASGYAFSSSWMNWVKQRPGKGLEWIGRIYPGDGDTNDNGKFKGKATLTADKSSSTAYMQLSSLTSEDSAVYFCARSYYYDGSPWFTYWGQGTTVTVSS
VL: DIQMTQSPSSLSASLGDRVTISCRASQDISNYLNWYQQKPDGTVKLLIYYTSRLHSGVPSRFSGSGSGTDYSLTISNLEPEDIATYFCQQYSEFPWTFGGGTKLEIKR
notes: Used as hybridoma culture supernatant, as antibody purified from ascites, biotin-labelled, or coupled to Sepharose beads; also called NOK1 antibody; biotinized monoclonal antibody NOK1
B5: soluble human Fas ligand molecule (ligand, UniProt P48023 130-281, looked up)
chain: QIGHPSPPPEKKELRKVAHLTGKSNSRSMPLEWEDTYGIVLLSGVKYKKGGLVINETGLYFVYSKVYFRGQSCNNLPLSHKVYMRNSKYPQDLVMMEGKMMSYCTTGQMWARSSYLGAVFNLTSADHLYVNVSELSLVNFEESQTFFGLYKL
B6: monoclonal antibody NOK5 (produced by Hybridoma NOK5, FERM BP-5048) (antibody, V domains shown)
VH: VQLQESGAEPAKPGASVKMSCKASGYTFTTYWMHWVKQRPGQGLEWIGYINPSSGYTEYNQKFKDKATLTADKSSSTAYMQLISLTSEDSAVYYCARRGNYYYFDYWGQGTTVTVSS
VL: DVLMTQTPKFLPVSAGDRVTMTCKASQSVGNNVAWYQQKPGQSPKLLIYYTSNRYTGVPDRFTGSGSGTDFTFTISSVQVEDLAVYFCQQHYSSPYTFGSGTKLE

In assay [1] the target is B5. Description: cell-based or functional assay.
Assay [2] deals with T1, monkey Fas ligand on activated rhesus monkey peripheral blood mononuclear cell surfaces (rhesus monkey, UniProt P63307 1-280).
T1 construct: whole, on cells; also called Fas ligand on monkey cell surfaces
T1 sequence (looked up): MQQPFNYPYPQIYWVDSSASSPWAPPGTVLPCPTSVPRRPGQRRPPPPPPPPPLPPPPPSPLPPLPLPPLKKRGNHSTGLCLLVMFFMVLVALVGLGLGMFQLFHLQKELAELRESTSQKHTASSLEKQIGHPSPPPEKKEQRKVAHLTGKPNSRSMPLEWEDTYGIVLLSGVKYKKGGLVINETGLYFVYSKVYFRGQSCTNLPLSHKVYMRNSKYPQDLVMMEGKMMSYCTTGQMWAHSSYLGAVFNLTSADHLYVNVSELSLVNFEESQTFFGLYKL
Description: flow cytometry (FACScan) on activated rhesus monkey PBMC, 1 µg antibody, PE-anti-mouse Ig's. As for the experimental part: Five milliliters of peripheral blood were collected from a rhesus monkey using a heparinized syringe. After the blood was diluted to ½ with PBS, its lymphocyte fraction was recovered by the specific gravity centrifugation using Separate L. These monkey peripheral blood mononuclear lymphocytes were cultured for 2 days in a 10% FCS•RPMI 1640 medium containing 10 μg/ml of Con A to activate them. Thereafter, the cells were recovered by centrifugation, and then cultured further for a week in a 10% FCS•RPMI 1640 medium containing 50 units/ml of human IL-2 (interleukin-2). After a week, PMA and ionomycin were added to give concentrations of 10 ng/ml and 500 ng/ml, respectively, to activate the cells further for 4 hours. At this time, BB94 (matrix protease inhibitor) was added in a proportion of 10 μM at the same time. The Fas ligand was expressed in a large amount on the lymphocytes by these activation processes. After 4 hours, the cell were collected to analyze them by flow cytometry. After collecting the cells, the number of cells was first counted to adjust the cells to 1 ×10^6 cells/ml with PBS. Thereafter, the cells were placed in portions of 1 ml into tubes (Farcon No-2008), and 100 μl of control PBS, 1 μg of NOK1 antibody (100 μl of one diluted to a concentration of 10 μg/ml with PBS), 1 μg of monoclonal antibody NOK2 (similarly, 100 μl at a concentration of 10 μg/ml) and 1 μg of monoclonal antibody NOK3 (similarly, 100 μl at a concentration of […]) were separately placed in the tubes, thereby conducting a reaction for 30 minutes on an ice bath.
After the respective cultures were centrifugally washed twice with PBS. 1 µl of PE-anti-mouse Ig's were placed in the tubes to conduct a reaction further for 30 minutes on the ice bath. After the cultures were washed with PBS and separately suspended in 200 µl of PBS, they were analyzed by FACScan.
(In general: In flow cytometry, cells or beads pass a laser one at a time.)

For assay [3], the target named is T2, 10-mer peptide consisting of residues 1 to 10 of SEQ ID NO: 31 (immobilized on the tip of a Pepset pin).
T2 construct: One of 44 overlapping 10-mer peptides of the extracellular domain of the Fas ligand
T2 peptide: LSHKVYMRNS
Description: Pepset pin ELISA, HRP-labeled anti-mouse IgG. The protocol: (§1) ⑨ After the pin of the Pepset was taken out of the well of the plate, 2N H_2SO_4 was added in an amount of 50 μl to each well to stop the reaction.
On the technique in general: An ELISA detects its analyte on a solid surface through an enzyme-linked reagent.

The target of assay [4] is T3, 10-mer peptide consisting of residues 5 to 14 of SEQ ID NO: 31 (immobilized on the tip of a Pepset pin).
T3 construct: One of 44 overlapping 10-mer peptides of the extracellular domain of the Fas ligand
T3 peptide: VYMRNSKYPQ
Description: Pepset pin ELISA, HRP-labeled anti-mouse IgG. The protocol: as §1

Assay [5] addresses T4, human Fas expressed on WR19L cells (human, UniProt P25445 26-335).
T4 sequence (looked up): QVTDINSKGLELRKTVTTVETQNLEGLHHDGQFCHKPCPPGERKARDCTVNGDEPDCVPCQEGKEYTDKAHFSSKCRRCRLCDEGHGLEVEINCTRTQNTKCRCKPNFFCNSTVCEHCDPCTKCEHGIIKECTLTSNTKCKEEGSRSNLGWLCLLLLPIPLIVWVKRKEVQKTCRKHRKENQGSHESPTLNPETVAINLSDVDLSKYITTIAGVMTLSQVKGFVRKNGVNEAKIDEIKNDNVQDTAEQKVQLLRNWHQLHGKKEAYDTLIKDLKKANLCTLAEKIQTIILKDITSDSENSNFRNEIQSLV
Nature of the assay: cell-based or functional assay.

In assay [1], B1 registered a Survival rate of 101%. Also, the binding result in assay [2] was “binds”. In turn, B2 displayed a Survival rate in assay [1] of 110%. Regarding B3, the Survival rate in assay [1] came to 105%. For the same molecule, the binding result in assay [3], in assay [4] and in assay [2] was “binds” in each case. In turn, B4 registered a Survival rate in assay [1] of 99.3%. Besides, in assay [2], the binding result is given as “binds”. In assay [5], B5 had a Survival rate of 3.5%. In turn, B6 came in with a Survival rate in assay [1] of 98.2%.
